Entries after “also recorded” stand apart in the source; their conditions may differ.
B1: BSP: Bone sialoprotein, phosphorylated and sulfated integrin-binding glycoprotein, SIBLINGS family; recombinant form from adenovirus-infected human marrow stromal fibroblasts (protein)
chain: FSMKNLHRRVKIEDSEENGVFKYRPRYYLYKHAYFYPHLKRFPVQGSSDSSEENGDDSSEEEEEEEETSNEGENNEESNEDEDSEAENTTLSATTLGYGEDATPGTGYTGLAAIQLPKKAGDITNKATKEKESDEEEEEEEEGNENEESEAEVDENEQGINGTSTNSTEAENGNGSSGGDNGEEGEEESVTGANAEGTTETGGQGKGTSKTTTSPNGGFEPTTPPQVYRTTSPPFGKTTTVEYEGEYEYTGVNEYDNGYEIYESENGEPRGDNYRAYEDEYSYFKGQGYDGYDGQNYYHHQ
B2: DMP1: dentin matrix protein, SIBLINGS family member; recombinant from adenoviral construct (protein)
chain: LPVTRYQNNESEDSEEWKGHLAQAPTPPLESSESSEGSKVSSEEQANEDPSDSTQSEEGLGSDDHQYIYRLAGGFSRSTGKGGDDKDDDEDDSGDDTFGDDDSGPGPKDRQEGGNSRLGSDEDSDDTIQASEESAPQGQDSAQDTTSESRELDNEDRVDSKPEGGDSTQESESEEHWVGGGSDGESSHGDGSELDDEGMQSDDPESIRSERGNSRMNSAGMKSKESGENSEQANTQDSGGSQLLEHPSRKIFRKSRISEEDDRSELDDNNTMEEVKSDSTENSNSRDTGLSQPRRDSKGDSQEDSKENLSQEESQNVDGPSSESSQEANLSSQENSSESQEEVVSESRGDNPDPTTSYVEDQEDSDSSEEDSSHTLSHSKSESREEQADSESSESLNFSEESPESPEDENSSSQEGLQSHSSSAESQSEESHSEEDDSDSQDSSRSKEDSNSTESKSSSEEDGQLKNIEIESRKLTVDAYHNKPIGDQDDNDCQDGY

What was measured:
[1] = biological target: T1, purified human complement Factor H (Homo sapiens, UniProt P08603); test: Steady state fluorescence titration of Factor H with SIBLINGS proteins; type: binding; conditions: fluorescence quenching at 347 nm, excitation 295 nm
T1 construct: purchased Quidel Corporation (San Diego, Calif.)
From the text: FIGS. 3A and 3B are graphs which show the result of a titration of Factor H with BSP.
The salient structural features of Factor H include 20 short consensus repeats (SCRs) that contain four cysteine residues forming two disulfide bonds per repeat. In addition, each SCR contains one conserved tryptophan residue per repeat and Factor H is known to interact with several sialic acid-containing proteins. Therefore, binding interactions between members of the SIBLINGS family of proteins and Factor H can be studied by steady state fluorescence.
Steady state fluorescence studies were accomplished by titrating purified human complement Factor H with rBSP, rOPN, and rDMP1 followed by excitation at 295 nm and monitoring emission between 300 and 450 nm. The emission profile of Factor H alone yields a peak at 347 nm. The addition of rBSP, rOPN, or rDMP1 in nm increments causes a relative fluorescent intensity quenching. Conversion of the fluorescent intensity titration into a binding curve by determining the fraction of binding sites occupied as the fractional change in fluorescence quenching at 347 nm yields a saturable binding curve. […] Given that normal serum concentration of Factor H is ^˜0.5 mg/mL it is probable that virtually all BSP, OPN, and DMP1 in serum will be complexed with Factor H.

[2] = tested on: Murine erythroleukemia (MEL) cells; test: Alternate complement mediated cell lysis assay, MEL cells with normal human serum; type: cell-based; conditions: for protection of MEL cells from complement-mediated lysis (cell viability): 10 μg/mL protein 10 min, normal human serum 1:10, 2 h, trypan blue and MTT
Method: MEL cells were rinsed three times with GVB-MgEGTA buffer, resuspended in GVB-MgEGTA at a density of 5×10^6 cells/mL, and incubated at 37° C. with different concentrations of normal human serum. After 2 hrs, cells were harvested for trypan blue exclusion assay. The thiazolium blue assay was carried out at identical serum dilutions and cell viability was determined by absorbance at 560 nm. Each data point represents the average of three measurements. The error bars represent the standard deviation of the mean (A). MEL cells in GVB-MgEGTA buffer were incubated with 10 μg/mL of either rBSP or rOPN for 10 minutes at 37° C. Normal human serum was then added at a dilution of 1:10 and the cells were returned to 37° C., incubated for 2 hours and cell viability was determined by trypan blue and thiazolyl blue (MTT) reduction assays (B). Data from 3–7 separate experiments, with treatment replicates in triplicate, was combined to yield mean values. Error bars represent the standard error of the mean. N=number of experiments combined.
MEL cells prepared as in FIG. 8 were treated with normal rBSP (10 μg/mL), rBSP whose RGD sequence had been mutated to KAE ([…]), and either GRGDS (SEQ ID NO: 10) peptide (400 μM) followed by rBSP or an αVβ3 antibody (1:4000) followed by rBSP for 10 minutes prior to the addition of normal human serum. The cells were then incubated for […] after which cell viability determined using the MTT assay (A). A cohort of MEL cells were pretreated with rOPN (10 μg/mL) alone, GRGDS (SEQ ID NO: 10) peptide followed by rOPN, the αVβ3 antibody followed by rOPN, or an anti-CD44 antibody (Chemicon, Co.) followed by rOPN, or hyaluronan (HA) followed by rOPN (B). Cells were then treated with normal human serum and viability assayed as in FIG. 8. […] The data represents the mean and standard error of the mean for three separate experiments. Statistical significance was determined by analysis of variance. Percent cell viability was determined using A560 absorbance values of various conditions and a control where no serum had been added (100% viable). The cross-hatched region represents that range of values observed when normal human serum (1:10) alone was added (maximal cell death).
The first model system employed was a murine erythroleukemia (MEL) cell line which when incubated with normal human serum can be readily assayed for alternate complement pathway (ACP)-mediated cell lysis (Varnet et al., Curr. Opin. Cell Biol., 8(5):724–730, 1996). Cell survival was measured by both trypan blue dye exclusion and by thiazolyl blue (MTT) reduction by living mitochondria. Titration with dilutions of normal human serum and time courses were carried out to define optimal incubation conditions. At 1:10 dilution, human serum totally lysed the MEL cells as measured by both assay systems (FIG. 8A).
Murine erytliroleukemia (MEL) cells (a gift of Dr. Marilyn Farquhar, Univ. CA San Diego.) grown in DMEM containing 10% fetal bovine serum and 4 mM glutamine were rinsed three times with gelatin veronal buffer with Mg2^+ and EGTA (GVB-MgEGTA, Sigma, St. Louis, Mo.). Cells were resuspended in GVB-MgEGTA at a density of 5×10^6 cells/mL and incubated at 37° C. with different concentrations of normal human serum diluted in GVB-MgEGTA. […] Cell viability was determined spectrophotometrically by absorbance at 560 nm. […]

[3] = tested on: U-266 myeloma cells; test: Alternate complement pathway cell lysis assay with guinea pig serum, U-266; type: cell-based, human; conditions: U-266, 10 μg/mL, guinea pig serum 1:5, trypan blue and MTT
Method: (§1) Human cancer cell lines, MCF-7 (A) and U-266 (B) cells were rinsed three time with GVB-MgEGTA buffer and subsequently treated exactly as in the MEL cell complement-mediated cell lysis assay described above except complement active guinea pig serum (GPS) was substituted for human serum. Three different dilutions of GPS were assayed. For cultures pretreated with 10 μg/mL BSP or OPN, the dilution of GPS used was 1:5. Cell viability was determined by both trypan blue exclusion (solid bar) and MTT (open bar) assay. The bars represent the mean values of triplicate samples and the error bars are the standard deviation values.
(§2) Murine erytliroleukemia (MEL) cells (a gift of Dr. Marilyn Farquhar, Univ. CA San Diego.) grown in DMEM containing 10% fetal bovine serum and 4 mM glutamine were rinsed three times with gelatin veronal buffer with Mg2^+ and EGTA (GVB-MgEGTA, Sigma, St. Louis, Mo.). Cells were resuspended in GVB-MgEGTA at a density of 5×10^6 cells/mL and incubated at 37° C. with different concentrations of normal human serum diluted in GVB-MgEGTA. […] Cell viability was determined spectrophotometrically by absorbance at 560 nm. […] Normal human serum collected for good complement activity was then added at a dilution of 1:10 and the cells returned to 37° C. for 2 hours and cell viability was determined by trypan blue-exclusion and MTT assays. […]

[4] = tested on: MCF-7 breast cancer cells; test: Alternate complement pathway cell lysis assay with guinea pig serum, MCF-7; type: cell-based, human; conditions: MCF-7, 10 μg/mL, guinea pig serum 1:5, trypan blue and MTT
Method: as §1, §2

T1 sequence (P08603 19-1231): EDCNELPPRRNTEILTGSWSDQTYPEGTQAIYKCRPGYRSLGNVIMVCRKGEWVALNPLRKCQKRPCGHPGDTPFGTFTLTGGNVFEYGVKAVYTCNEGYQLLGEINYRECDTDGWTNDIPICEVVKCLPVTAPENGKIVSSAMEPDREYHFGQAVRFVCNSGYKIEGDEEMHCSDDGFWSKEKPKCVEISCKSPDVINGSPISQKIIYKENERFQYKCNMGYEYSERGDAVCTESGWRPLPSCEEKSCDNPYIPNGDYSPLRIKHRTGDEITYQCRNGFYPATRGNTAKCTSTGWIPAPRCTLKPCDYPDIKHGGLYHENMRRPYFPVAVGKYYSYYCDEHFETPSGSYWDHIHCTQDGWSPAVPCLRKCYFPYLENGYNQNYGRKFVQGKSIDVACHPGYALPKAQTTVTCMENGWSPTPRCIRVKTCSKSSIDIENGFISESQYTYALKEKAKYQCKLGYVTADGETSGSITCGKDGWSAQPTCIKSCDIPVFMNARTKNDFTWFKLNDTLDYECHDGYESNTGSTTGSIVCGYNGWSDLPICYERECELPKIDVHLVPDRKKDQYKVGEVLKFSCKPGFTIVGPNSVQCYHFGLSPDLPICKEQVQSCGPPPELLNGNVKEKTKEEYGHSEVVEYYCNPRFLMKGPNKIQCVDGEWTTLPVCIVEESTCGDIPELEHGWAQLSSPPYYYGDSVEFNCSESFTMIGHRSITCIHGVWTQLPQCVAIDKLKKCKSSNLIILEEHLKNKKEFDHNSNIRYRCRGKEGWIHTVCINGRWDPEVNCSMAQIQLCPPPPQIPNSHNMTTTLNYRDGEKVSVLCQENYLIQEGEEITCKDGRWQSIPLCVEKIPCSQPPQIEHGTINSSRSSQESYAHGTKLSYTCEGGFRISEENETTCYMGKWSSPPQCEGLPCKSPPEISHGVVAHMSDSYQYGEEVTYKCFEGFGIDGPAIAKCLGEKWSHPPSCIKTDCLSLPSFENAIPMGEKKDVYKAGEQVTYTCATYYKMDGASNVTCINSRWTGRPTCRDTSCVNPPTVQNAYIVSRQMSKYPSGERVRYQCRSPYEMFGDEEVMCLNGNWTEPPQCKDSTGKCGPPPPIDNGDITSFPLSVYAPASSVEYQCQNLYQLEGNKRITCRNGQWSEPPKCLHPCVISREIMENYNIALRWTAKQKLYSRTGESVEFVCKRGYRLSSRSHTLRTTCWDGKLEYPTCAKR

Molecule | binding constant with Factor H [1] | dose relation of protection of MEL cells from alternate complement pathway-mediated lysis [2] | protection of MEL cells from complement-mediated lysis (cell viability) [2] | protection of MEL cells from complement-mediated lysis (cell viability) ([2]; listed as recombinant BSP) | survival and protection from complement-mediated cell lysis [3] | survival and protection from complement-mediated cell lysis [4]
B1 | in the nM range | dose related responses | protect | completely protected | enhanced survival and protection | enhanced survival and protection
B2 | in the nM range | dose related responses | conferred protection; also recorded: protect the cells |  |  | 

— US6995018B1, “Complex formed by N-linked glycoproteins (SIBLINGS)and Factor H” (The United States of America as represented by the …, priority 1999, dated 2006)
